Values quoted from earlier work, collected in patent publication US20250282866A1, “TREATMENT OF DISEASES RELATED TO ATP-BINDING CASSETTE TRANSPORTER 1 DYSFUNCTION USING TREM2 AGONISTS” (VIGIL NEUROSCIENCE, INC., priority 2020, published 2025).
Substitutions are numbered along the chain they refer to. Names may count otherwise. Marks after values point to notes of the source that are not given here.

T1: human TREM2 (Homo sapiens, UniProt Q9NZC2)
T1 sequence (Q9NZC2 19-230): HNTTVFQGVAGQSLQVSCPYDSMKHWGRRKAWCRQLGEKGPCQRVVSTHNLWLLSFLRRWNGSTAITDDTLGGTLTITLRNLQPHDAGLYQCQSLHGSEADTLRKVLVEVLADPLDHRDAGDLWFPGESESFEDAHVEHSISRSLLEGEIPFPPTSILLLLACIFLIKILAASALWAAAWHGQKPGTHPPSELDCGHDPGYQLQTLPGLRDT

B1: V90: 6E7 variant: VH Y32E; VL S31R (antibody, V domains shown)
VH: EVQLVQSGAEVKKPGESLKISCKGSGYSFTSEWIAWVRQMPGKGLEWMGIIYPGDSDTRYSPSFQGQVTISADKSISTAYLQWSSLKASDTAMYFCARQRTFYYDSSDYFDYWGQGTLVTVSS
VL: DIQMTQSPSSVSASVGDRVTITCRASQGISRWLAWYQQKPGKAPKLLIYAASSLQNGVPSRFSGSGSGTDFTLTISSLQPEDFATYFCQQADSFPRTFGQGTKLEIK
B2: V85: 6E7 variant: VH T30R, I50T, Q99S; VL L54R (antibody, V domains shown)
VH: B1 VH with T30R, E32Y, I50T, Q99S
VL: B1 VL with R31S, L54R
B3: V15: 6E7 variant: VH T30A, I50T, Q99S; VL S53W, F94Y (antibody, V domains shown)
VH: B1 VH with T30A, E32Y, I50T, Q99S
VL: B1 VL with R31S, S53W, F94Y
B4: V86: 6E7 variant: VH T30G, I34L, Q65E, Q99S; VL L54R (antibody, V domains shown)
VH: B1 VH with T30G, E32Y, I34L, Q65E, Q99S
VL: B1 VL with R31S, L54R
B5: V87: 6E7 variant: VH T30R, T58V, S63D, Q99S; VL N56W (antibody, V domains shown)
VH: B1 VH with T30R, E32Y, T58V, S63D, Q99S
VL: B1 VL with R31S, N56W
B6: V14: 6E7 variant: VH T30G, S56Q, Q99G; VL S53R (antibody, V domains shown)
VH: B1 VH with T30G, E32Y, S56Q, Q99G
VL: B1 VL with R31S, S53R
B7: V13: 6E7 variant: VH T30G, P62A, Q99G; VL N56G, F94M (antibody, V domains shown)
VH: B1 VH with T30G, E32Y, P62A, Q99G
VL: B1 VL with R31S, N56G, F94M
B8: V88: 6E7 variant: VH T30G; VL S53R, N56R, F94S (antibody, V domains shown)
VH: B1 VH with T30G, E32Y
VL: B1 VL with R31S, S53R, N56R, F94S

Target: T1, human TREM2
Details: 1st screen; values printed with asterisk; concentration 110 nM or 10 nM (footnote a not given)

Row | Binding Signal (fold over 6E7 Parental antibody) 1st screen 110 nM or 10 nM | Molecule
1 | 0.33* fold over 6E7 Parental antibod | B1

Same assay, conditions: 1st screen; values printed without asterisk; concentration 110 nM or 10 nM (footnote a not given)

Row | Binding Signal (fold over 6E7 Parental antibody) 1st screen 110 nM or 10 nM | Molecule
2 | 5.41 fold over 6E7 Parental antibod | B2
3 | 5.23 fold over 6E7 Parental antibod | B3
4 | 4.80 fold over 6E7 Parental antibod | B4
5 | 3.84 fold over 6E7 Parental antibod | B5
6 | 4.71 fold over 6E7 Parental antibod | B6
7 | 1.31 fold over 6E7 Parental antibod | B7
8 | 4.92 fold over 6E7 Parental antibod | B8

Same assay, conditions: 2nd screen, 2 nM

Row | Binding Signal (fold over 6E7 Parental antibody) 2nd screen 2 nM | Molecule
9 | 5.41 fold over 6E7 Parental antibod | B2
10 | 4.72 fold over 6E7 Parental antibod | B3
11 | 5.17 fold over 6E7 Parental antibod | B4
12 | 4.86 fold over 6E7 Parental antibod | B5
13 | 2.57 fold over 6E7 Parental antibod | B6
14 | 1.15 fold over 6E7 Parental antibod | B7
15 | 5.57 fold over 6E7 Parental antibod | B8

Same assay, conditions: 2nd screen, 10 nM

Row | Binding Signal (fold over 6E7 Parental antibody) 2nd screen 10 nM | Molecule
16 | 5.37 fold over 6E7 Parental antibod | B2
17 | 4.78 fold over 6E7 Parental antibod | B3
18 | 5.02 fold over 6E7 Parental antibod | B4
19 | 3.93 fold over 6E7 Parental antibod | B5
20 | 4.64 fold over 6E7 Parental antibod | B6
21 | 1.35 fold over 6E7 Parental antibod | B7
22 | 5.30 fold over 6E7 Parental antibod | B8

Same assay, conditions: 2nd screen, 100 nM

Row | Binding Signal (fold over 6E7 Parental antibody) 2nd screen 100 nM | Molecule
23 | 0.36 fold over 6E7 Parental antibod | B1
